Like-named read-outs stand apart in the source and are kept apart here.
B1: AS170036 VL1VH1-56N98F (scFv)
scFv: QSALTQPRSVSGSPGQSVTISCAGTSSDVGSENYVSWYQQHPGKAPKLMIYQVNKRASGVPDRFSGSKSGNTASLTISGLQAEDEADYYCASYRSSDFNIVFGGGTKLTVLGGGGSGGGGSGGGGSEVQLVESGGGLVQPGGSLRLSCAASGFTFSSYAMSWVRQAPGKGLEWVSTINSGTNSPYYADSVKGRFTISRDNSKNTLYLQMNSLRAEDTAVYYCAKNFFDGSWFLGPPAMDYWGQGTLVTVSSHHHHHH
notes: also called 04-AS170036 VL1VH1-56N98F
B2: AS170036 VL1VH1-56Y108S (scFv)
scFv: QSALTQPRSVSGSPGQSVTISCAGTSSDVGSENYVSWYQQHPGKAPKLMIYQVNKRASGVPDRFSGSKSGNTASLTISGLQAEDEADYYCASYRSSDHNIVFGGGTKLTVLGGGGSGGGGSGGGGSEVQLVESGGGLVQPGGSLRLSCAASGFTFSSYAMSWVRQAPGKGLEWVSTINSGTYSPYYADSVKGRFTISRDNSKNTLYLQMNSLRAEDTAVYYCAKNFFDGSWFLSPPAMDYWGQGTLVTVSSHHHHHH
notes: also called 18-AS170036 VL1VH1-56Y108S
B3: AS170036 VL1VH1-56Y98Q (scFv)
scFv: QSALTQPRSVSGSPGQSVTISCAGTSSDVGSENYVSWYQQHPGKAPKLMIYQVNKRASGVPDRFSGSKSGNTASLTISGLQAEDEADYYCASYRSSDQNIVFGGGTKLTVLGGGGSGGGGSGGGGSEVQLVESGGGLVQPGGSLRLSCAASGFTFSSYAMSWVRQAPGKGLEWVSTINSGTYSPYYADSVKGRFTISRDNSKNTLYLQMNSLRAEDTAVYYCAKNFFDGSWFLGPPAMDYWGQGTLVTVSSHHHHHH
notes: also called 03-AS170036 VL1VH1-56Y98Q
B4: AS170036 VL1VH1-56Y98F (scFv)
scFv: QSALTQPRSVSGSPGQSVTISCAGTSSDVGSENYVSWYQQHPGKAPKLMIYQVNKRASGVPDRFSGSKSGNTASLTISGLQAEDEADYYCASYRSSDFNIVFGGGTKLTVLGGGGSGGGGSGGGGSEVQLVESGGGLVQPGGSLRLSCAASGFTFSSYAMSWVRQAPGKGLEWVSTINSGTYSPYYADSVKGRFTISRDNSKNTLYLQMNSLRAEDTAVYYCAKNFFDGSWFLGPPAMDYWGQGTLVTVSSHHHHHH
notes: also called 01-AS170036 VL1VH1-56Y98F
B5: AS170036 VL1VH1-56Y108A (scFv)
scFv: QSALTQPRSVSGSPGQSVTISCAGTSSDVGSENYVSWYQQHPGKAPKLMIYQVNKRASGVPDRFSGSKSGNTASLTISGLQAEDEADYYCASYRSSDHNIVFGGGTKLTVLGGGGSGGGGSGGGGSEVQLVESGGGLVQPGGSLRLSCAASGFTFSSYAMSWVRQAPGKGLEWVSTINSGTYSPYYADSVKGRFTISRDNSKNTLYLQMNSLRAEDTAVYYCAKNFFDGSWFLAPPAMDYWGQGTLVTVSSHHHHHH
notes: also called 16-AS170036 VL1VH1-56Y108A
B6: AS170036 VL1VH1-57M98Q108D (scFv)
scFv: QSALTQPRSVSGSPGQSVTISCAGTSSDVGSENYVSWYQQHPGKAPKLMIYQVNKRASGVPDRFSGSKSGNTASLTISGLQAEDEADYYCASYRSSDQNIVFGGGTKLTVLGGGGSGGGGSGGGGSEVQLVESGGGLVQPGGSLRLSCAASGFTFSSYAMSWVRQAPGKGLEWVSTINSGTGMPYYADSVKGRFTISRDNSKNTLYLQMNSLRAEDTAVYYCAKNFFDGSWFLDPPAMDYWGQGTLVTVSSHHHHHH
notes: also called 83-AS170036 VL1VH1-57M98Q108D
B7: AS170036 VL1VH1-56Y108D (scFv)
scFv: QSALTQPRSVSGSPGQSVTISCAGTSSDVGSENYVSWYQQHPGKAPKLMIYQVNKRASGVPDRFSGSKSGNTASLTISGLQAEDEADYYCASYRSSDHNIVFGGGTKLTVLGGGGSGGGGSGGGGSEVQLVESGGGLVQPGGSLRLSCAASGFTFSSYAMSWVRQAPGKGLEWVSTINSGTYSPYYADSVKGRFTISRDNSKNTLYLQMNSLRAEDTAVYYCAKNFFDGSWFLDPPAMDYWGQGTLVTVSSHHHHHH
notes: also called 17-AS170036 VL1VH1-56Y108D
B8: AS170036 VL1VH1-57M98I108D (scFv)
scFv: QSALTQPRSVSGSPGQSVTISCAGTSSDVGSENYVSWYQQHPGKAPKLMIYQVNKRASGVPDRFSGSKSGNTASLTISGLQAEDEADYYCASYRSSDINIVFGGGTKLTVLGGGGSGGGGSGGGGSEVQLVESGGGLVQPGGSLRLSCAASGFTFSSYAMSWVRQAPGKGLEWVSTINSGTGMPYYADSVKGRFTISRDNSKNTLYLQMNSLRAEDTAVYYCAKNFFDGSWFLDPPAMDYWGQGTLVTVSSHHHHHH
notes: also called 80-AS170036 VL1VH1-57M98I108D
B9: AS170036 VL1VH1-56N98I (scFv)
scFv: QSALTQPRSVSGSPGQSVTISCAGTSSDVGSENYVSWYQQHPGKAPKLMIYQVNKRASGVPDRFSGSKSGNTASLTISGLQAEDEADYYCASYRSSDINIVFGGGTKLTVLGGGGSGGGGSGGGGSEVQLVESGGGLVQPGGSLRLSCAASGFTFSSYAMSWVRQAPGKGLEWVSTINSGTNSPYYADSVKGRFTISRDNSKNTLYLQMNSLRAEDTAVYYCAKNFFDGSWFLGPPAMDYWGQGTLVTVSSHHHHHH
notes: also called 05-AS170036 VL1VH1-56N98I
B10: AS170036 VL1VH1-57M98Q108A (scFv)
scFv: QSALTQPRSVSGSPGQSVTISCAGTSSDVGSENYVSWYQQHPGKAPKLMIYQVNKRASGVPDRFSGSKSGNTASLTISGLQAEDEADYYCASYRSSDQNIVFGGGTKLTVLGGGGSGGGGSGGGGSEVQLVESGGGLVQPGGSLRLSCAASGFTFSSYAMSWVRQAPGKGLEWVSTINSGTGMPYYADSVKGRFTISRDNSKNTLYLQMNSLRAEDTAVYYCAKNFFDGSWFLAPPAMDYWGQGTLVTVSSHHHHHH
notes: also called 82-AS170036 VL1VH1-57M98Q108A
B11: AS170036 VL1VH1-56N108D (scFv)
scFv: QSALTQPRSVSGSPGQSVTISCAGTSSDVGSENYVSWYQQHPGKAPKLMIYQVNKRASGVPDRFSGSKSGNTASLTISGLQAEDEADYYCASYRSSDHNIVFGGGTKLTVLGGGGSGGGGSGGGGSEVQLVESGGGLVQPGGSLRLSCAASGFTFSSYAMSWVRQAPGKGLEWVSTINSGTNSPYYADSVKGRFTISRDNSKNTLYLQMNSLRAEDTAVYYCAKNFFDGSWFLDPPAMDYWGQGTLVTVSSHHHHHH
notes: also called 20-AS170036 VL1VH1-56N108D
B12: AS170036 VL1VH1-57H98F (scFv)
scFv: QSALTQPRSVSGSPGQSVTISCAGTSSDVGSENYVSWYQQHPGKAPKLMIYQVNKRASGVPDRFSGSKSGNTASLTISGLQAEDEADYYCASYRSSDFNIVFGGGTKLTVLGGGGSGGGGSGGGGSEVQLVESGGGLVQPGGSLRLSCAASGFTFSSYAMSWVRQAPGKGLEWVSTINSGTGHPYYADSVKGRFTISRDNSKNTLYLQMNSLRAEDTAVYYCAKNFFDGSWFLGPPAMDYWGQGTLVTVSSHHHHHH
notes: also called 07-AS170036 VL1VH1-57H98F
B13: AS170036 VL1VH1-56N108S (scFv)
scFv: QSALTQPRSVSGSPGQSVTISCAGTSSDVGSENYVSWYQQHPGKAPKLMIYQVNKRASGVPDRFSGSKSGNTASLTISGLQAEDEADYYCASYRSSDHNIVFGGGTKLTVLGGGGSGGGGSGGGGSEVQLVESGGGLVQPGGSLRLSCAASGFTFSSYAMSWVRQAPGKGLEWVSTINSGTNSPYYADSVKGRFTISRDNSKNTLYLQMNSLRAEDTAVYYCAKNFFDGSWFLSPPAMDYWGQGTLVTVSSHHHHHH
notes: also called 21-AS170036 VL1VH1-56N108S
B14: AS170036 VL1VH1-57M98Q108S (scFv)
scFv: QSALTQPRSVSGSPGQSVTISCAGTSSDVGSENYVSWYQQHPGKAPKLMIYQVNKRASGVPDRFSGSKSGNTASLTISGLQAEDEADYYCASYRSSDQNIVFGGGTKLTVLGGGGSGGGGSGGGGSEVQLVESGGGLVQPGGSLRLSCAASGFTFSSYAMSWVRQAPGKGLEWVSTINSGTGMPYYADSVKGRFTISRDNSKNTLYLQMNSLRAEDTAVYYCAKNFFDGSWFLSPPAMDYWGQGTLVTVSSHHHHHH
notes: also called 84-AS170036 VL1VH1-57M98Q108S
B15: AS170036 VL1VH1-56Y98I (scFv)
scFv: QSALTQPRSVSGSPGQSVTISCAGTSSDVGSENYVSWYQQHPGKAPKLMIYQVNKRASGVPDRFSGSKSGNTASLTISGLQAEDEADYYCASYRSSDINIVFGGGTKLTVLGGGGSGGGGSGGGGSEVQLVESGGGLVQPGGSLRLSCAASGFTFSSYAMSWVRQAPGKGLEWVSTINSGTYSPYYADSVKGRFTISRDNSKNTLYLQMNSLRAEDTAVYYCAKNFFDGSWFLGPPAMDYWGQGTLVTVSSHHHHHH
notes: also called 02-AS170036 VL1VH1-56Y98I
B16: AS170036 VL1VH1-56N108A (scFv)
scFv: QSALTQPRSVSGSPGQSVTISCAGTSSDVGSENYVSWYQQHPGKAPKLMIYQVNKRASGVPDRFSGSKSGNTASLTISGLQAEDEADYYCASYRSSDHNIVFGGGTKLTVLGGGGSGGGGSGGGGSEVQLVESGGGLVQPGGSLRLSCAASGFTFSSYAMSWVRQAPGKGLEWVSTINSGTNSPYYADSVKGRFTISRDNSKNTLYLQMNSLRAEDTAVYYCAKNFFDGSWFLAPPAMDYWGQGTLVTVSSHHHHHH
notes: also called 19-AS170036 VL1VH1-56N108A
B17: AS170036 VL1VH1-56N98Q (scFv)
scFv: QSALTQPRSVSGSPGQSVTISCAGTSSDVGSENYVSWYQQHPGKAPKLMIYQVNKRASGVPDRFSGSKSGNTASLTISGLQAEDEADYYCASYRSSDQNIVFGGGTKLTVLGGGGSGGGGSGGGGSEVQLVESGGGLVQPGGSLRLSCAASGFTFSSYAMSWVRQAPGKGLEWVSTINSGTNSPYYADSVKGRFTISRDNSKNTLYLQMNSLRAEDTAVYYCAKNFFDGSWFLGPPAMDYWGQGTLVTVSSHHHHHH
notes: also called 06-AS170036 VL1VH1-56N98Q

Experiments:
[1] = target: T1, AFP158/HLA-A*02:01 complex (human); experiment: SPR, fold vs AS170036 VL1VH1;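 note: crude scFv muteins immobilised on a sensor chip, peptide–MHC complex passed over at several concentrations, binding then buffer-driven dissociation, KD estimated from on- and off-rates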
T1 construct: flowed as analyte in SPR
Procedure: (§1) The experiment was carried out as follows. The crude scFv protein were captured onto the sensorchip. Different concentrations (320, 160, 40 nM) of AFP158/HLA-A*02:01 complex flowed over the sensorchip surface, and were allowed to bind the antibody fragment for 100 s followed by injection of the running buffer to allow dissociation of the complex. On-rate (kd) and off-rate (kd) were calculated based on association and dissociation curve, and were used to estimate the equilibrium dissociation constant (KD).
(§2) The crude scFv muteins were then subjected to SPR affinity measurement by the method mentioned above.

[2] = target: T1, AFP158/HLA-A*02:01 complex; experiment: SPR, crude scFv captured, pMHC analyte
Procedure: as §1, §2

[3] = target: T1, AFP158/HLA-A*02:01 complex; experiment: SPR, fold vs AS170036 VL1VH1; remark: listed apart in the source;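 note: crude scFv muteins immobilised on a sensor chip, peptide–MHC complex passed over at several concentrations, binding then buffer-driven dissociation, KD estimated from on- and off-rates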
Procedure: as §1, §2

[4] = target: T1, AFP158/HLA-A*02:01 complex; experiment: SPR, crude scFv captured, pMHC analyte; remark: listed apart in the source
Procedure: as §1, §2

| Binder | Affinity increase [1] [fold] | Kd [2] [nM] | koff [2] [s⁻¹] | kon [2] [M⁻¹ s⁻¹] | Affinity increase [3] [fold] | Kd [4] [nM] | koff [4] [s⁻¹] | kon [4] [M⁻¹ s⁻¹] |
| --- | --- | --- | --- | --- | --- | --- | --- | --- |
| B1 | 8.2 | 27 | 0.0097 | 360000 |  |  |  |  |
| B2 | 19.2 | 12 | 0.0017 | 140000 |  |  |  |  |
| B3 | 25.8 | 8.7 | 0.0016 | 190000 |  |  |  |  |
| B4 | 21 | 11 | 0.0023 | 220000 |  |  |  |  |
| B5 | 48.1 | 4.7 | 0.00093 | 200000 |  |  |  |  |
| B6 |  |  |  |  | 29.6 | 7.6 | 0.0018 | 240000 |
| B7 | 37.3 | 6 | 0.0012 | 200000 |  |  |  |  |
| B8 |  |  |  |  | 20.5 | 11 | 0.0029 | 260000 |
| B9 | 10.7 | 21 | 0.0056 | 270000 |  |  |  |  |
| B10 |  |  |  |  | 43 | 5.2 | 0.0012 | 220000 |
| B11 | 13.2 | 17 | 0.0046 | 270000 |  |  |  |  |
| B12 | 30.2 | 7.4 | 0.0018 | 240000 |  |  |  |  |
| B13 | 7 | 32 | 0.0067 | 210000 |  |  |  |  |
| B14 |  |  |  |  | 16.7 | 14 | 0.0021 | 160000 |
| B15 | 33.5 | 6.7 | 0.0014 | 210000 |  |  |  |  |
| B16 | 14.9 | 15 | 0.0036 | 240000 |  |  |  |  |
| B17 | 9.7 | 23 | 0.0058 | 250000 |  |  |  |  |

Source: patent publication US20240279318A1 (NANJING LEGEND BIOTECH, published 2024)
